The text below walks through data of US20040171105A1.

The target in this experiment is GST fusion form of full-length human cIAP1 (human) (UniProt Q13490). Nature of the experiment: cell-based or functional assay.
GST fusion form of full-length human cIAP1 (human), sequence (Q13490 whole entry, the tested form may be a part): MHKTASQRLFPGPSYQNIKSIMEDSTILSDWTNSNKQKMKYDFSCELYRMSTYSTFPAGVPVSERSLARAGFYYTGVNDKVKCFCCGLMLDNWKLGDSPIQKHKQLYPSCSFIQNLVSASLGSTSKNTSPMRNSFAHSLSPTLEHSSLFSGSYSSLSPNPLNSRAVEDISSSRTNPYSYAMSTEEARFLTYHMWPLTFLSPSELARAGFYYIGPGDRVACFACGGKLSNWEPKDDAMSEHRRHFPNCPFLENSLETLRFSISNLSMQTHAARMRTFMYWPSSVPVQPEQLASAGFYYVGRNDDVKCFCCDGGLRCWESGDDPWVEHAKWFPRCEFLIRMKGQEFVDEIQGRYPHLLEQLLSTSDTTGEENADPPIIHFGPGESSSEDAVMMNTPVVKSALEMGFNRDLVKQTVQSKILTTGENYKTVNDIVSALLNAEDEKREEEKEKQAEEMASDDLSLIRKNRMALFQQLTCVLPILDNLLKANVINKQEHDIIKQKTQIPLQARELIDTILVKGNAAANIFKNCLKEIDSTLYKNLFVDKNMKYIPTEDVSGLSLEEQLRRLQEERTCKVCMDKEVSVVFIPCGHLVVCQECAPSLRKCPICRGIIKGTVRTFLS

As for “Omi SA (protease dead mutant Omi S306→Ala, C-terminal hexa-His tagged) (from UniProt O43464 134-458) (enzyme)”, the relief of cIAP1 inhibition of caspase activity in HeLa extracts was 75 nM.
